{"source": "the DeepSol protein solubility set", "data": [{"experiment": "soluble on expression in E. coli; label from the status in PepcDB or PDB records", "values": [{"sequence": "MGSDKIHHHHHHMQNVGLVMGKSSITDFSFAVNPSAIPKFGEYVTAINRDGEEVIGIVREISNFNRMILDEGFSFEYLVKNLDFSRRLIEKNDVIVATATVIGVVKDGEVYPNRTPIKPNSEVFLADDDVLSSLFKCDRGVELGRMIARPDISVSLDIKQLVLRHFAILSVTGGGKSNTVAVLVNDIVKKLNGTVVLIDPHGEYVGYTFEDGSERGKNVVPAGIRPERLEPWEFASLVGVDREKAAVQRMHLERIFTTVRHEGKAGREFVERVLDIAEEWINIAAGKGEAEYYDFNGIKRVATLDRQDLNALARIKEYVSSFMRRYEDLLSQNDMLANIKPSYLNVVNLSGFDEGQMRVVVAYLLRNLLVGRINYVRGKKGWEKICPAIVKPLLVIFEEGHIFAPKGVNNDVVSWMGRIAREGRKFGIGLGIVSQRPKRLNDDVLSQCNTKIILRITEPNDQRYVQHASEQISEDLLKDIASLGVGEAVVVGPAVKLPVAVKIRKFAGNYGGRDIDVVEEWLGREEEQKKQVTLEDLAV", "soluble on expression in E. coli": "not soluble"}, {"sequence": "MNIQNPVLKGFNPDPSIVRAGDDYYIATSTFEWFPGVQIHHSKDLVHWHLVAHPLSTTEFLDMKGNPDSGGIWAPDLSYADGKFWLIYTDVKVVDGMWKDCHNYLTTAEDIKGPWSKPILLNGAGFDASLFHDPSGKKYLVNMYWDQRVYHHNFYGIALQEYSVAEEKLIGKPEIIYKGTDIAYTEGPHLYYINDMYYLMTAEGGTTYQHSETIARSKTIHGPYEIQPDYPLLSAWKEVHNPLQKCGHASLVETQNGQWYLAHLTGRPLPAPAGFPSREREQHAFCPLGRETAIQKIEWQDGWPVVVGGQQGSLEVEAPDLPQQEWAPTYEERDDFDKDTLNINFQTLRIPFSEHLGSLTARPGFLRLYGRESLQSKFTQAHIARRWQSFNFDAGTSVEFSPNSFQQMAGLTCYYNTENWSSIHVTWNEEKGRIIDLVTADNGTFSMPLAGAEIPIPDEVKTVHFKVSVRGRIYQYAYSFDGETFHTLPIELPSWKLSDDYVRGGGFFTGAFVGINAIDITGTALPADFDYFTYKELD", "soluble on expression in E. coli": "soluble"}, {"sequence": "MGSDKIHHHHHHMQDIDDFLRQHRITEVEAIIPDMAGIARGKIIPRNKFETGESMRLPQAVMVQTVTGDYPEDGTLTGVTDPDMVCVADASTICLIPWAVDPTAQVIHDCVHFDGSPVEISPRYVLRRVLDLYRARGWKPVVAPELEFYLVDMNKDPDLPLRPPVGRTGRAETGRQSYSIEAVNEFDPLFEDIYEYCELQGLDIDTLIHEVGAAQMEINFLHGDALSLADQVFLFKRTVREAALRHNMYATFMAKPMESEPGSAMHIHQSVVDIETGRNLFIGASGDVTPMFRSYLAGLQKYTPALMPIFAPYINSYRRLSRFMAAPINVQWGYDNRTVGFRIPHSAAAARRIENRIPGVDCNPYLAIAGTLAAGYLGVTQGLEPTEPLASDGYSLPYQLPRNLEEGLTLMSACAPLAEMLGEKFVKAYLALKETEYEAFFRVISSWERRHLLLHV", "soluble on expression in E. coli": "not soluble"}, {"sequence": "MAHHHHHHMVSDPSFCKKAPSSDLLGSNGRKVPPSFIAPPSSDVFLTSRRKTSFRNKSALTCLGKDVMSVSYGCGMRFRKAVRSGLSVFREAITLTDGGRHEGSHSRTSDSRPPQLSKRSMREIRRRIISPSYLEITSRTSTASSSTLRYIRLDFFKKTRRR", "soluble on expression in E. coli": "not soluble"}, {"sequence": "MGSDKIHHHHHHMPEPKQETDFTAPAFRWENQQLKAIYTPKNIYLDDLKGIERQKEKIIQNTLQFLNGLPANDVLLTGSRGTGKSSIVRALLTEYAPQGLRLIEIERDDLADLPKIQKIIQNRPEKYIVYCDDLAFNAEDENYRSLKSVLDGSLQSGSTNFIIYATSNRRHLLPEFMHENTPVTKVDVPQYTELHPQEAIEEKISLSDRFGLWLSFYPMDQNLYLEIVEHYLDKANMPFNDEVRAESLRWCQMRGQRSGRAAYQFSKHWIGLNALKDLSNN", "soluble on expression in E. coli": "not soluble"}, {"sequence": "MDALELLINRRSASRLAEPAPTGEQLQNILRAGMRAPDHKSMQPWHFFVIEGEGRERFSAVLEQGAIAAGSDDKAIDKARNAPFRAPLIITVVAKCEENHKVPRWEQEMSAGCAVMAMQMAAVAQGFGGIWRSGALTESPVVREAFGCREQDKIVGFLYLGTPQLKASTSINVPDPTPFVTYFHH", "soluble on expression in E. coli": "soluble"}, {"sequence": "MAFLGLFSLLVLQSMATGATFPEEAIADLSVNMYNRLRATGEDENILFSPLSIALAMGMMELGAQGSTQEEIRHSMGYDSLKNGEEFSFLKEFSNMVTAKESQYVMKIANSLFVQNGFHVNEEFLQMMKKYFNAAVNHVDFSQNVAVANYINKWVENNTNNLVKDLVSPRDFDAATYLALINAVYFKGNWKSQFRPENTRTFSFTKDDESEVQIPMMYQQGEFYYGEFSDGSNEAGGIYQVLEIPYEGDEISMMLVLSRQEVPLATLEPLVKAQLVEEWANSVKKQKVEVYLPRFTVEQEIDLKDVLKALGITEIFIKDANLTGLYDNKEIFLSKAIHKSFLEVNEEGSEAAAVSGMIAISRMAVLYPQVIVDHPFFFLIRNRRTGTILFMGRVMHPETMNTSGHDFEEL", "soluble on expression in E. coli": "soluble"}, {"sequence": "SRFTISAAKPEDCKDIERMIMELAVYENMPDQVKISHKELERDGFGPNPFYHCLVAEVPEEHKSKDGNTTVGYVIFFYTYSTWKGRTVYMEDLYVMPEFRGNGIGKALLGAVAKEAKDQLCSRLQFSVLDWNKPSLDFYMAKGAEDLTAKEGWHFLRFHGMALDNLAQEAP", "soluble on expression in E. coli": "soluble"}, {"sequence": "MSVAEFDADVIVDARDCIMGRVASQVAEQALDGETVAVVNAERAVITGREEQIVEKYEKRVDIGNDNGYFYPKRPDGIFKRTIRGMLPHKKQRGREAFESVRVYLGNPYDEDGEVLDGTSLDRLSNIKFVTLGEISETLGANKTW", "soluble on expression in E. coli": "soluble"}, {"sequence": "MGSDKIHHHHHHMLEVKKLTVCYNDFLALNEISLKIQEGALTGIFGPNGAGKSTLLKAMLNIIPHQGEVSINNEDINKKLVKIAYVEQKADIDFTFPIKVKECVSMGTYAGMKVFQRIKNAEWQKVSKALEKVDMGKYSNHQIGELSGGQFQRVLLARCLAQNADFIFLDEPFVGIDLVSERIIMDTLKELKHQGKTVLIVHHDLSKVKKYFDNIILLNRNLIAHGSVESVFNEENLKKAYGDTIFIGEGE", "soluble on expression in E. coli": "not soluble"}, {"sequence": "TPLSLTLDHWSEIRSRAHNLSVEIKKGPWRTFCASEWPTFDVGWPPEGTFDLTVIFEVKAIVFQDGPGSHPDQQPYITVWQDLVQNSPPWIK", "soluble on expression in E. coli": "soluble"}, {"sequence": "MAHHHHHHMALPRGMHLLLKIYLQKCRLRWLREALNCIRGMVSMRLVMASMGSTPVERHKGEVAPGAEGEDTHFWLDGSFAEAEEALRQFFEMIKFPLPQRFSFAEEIRRDMKKRYPHCGEEALKSEEDITVVDAAALFKCVDGYIAFLSTRSDVGIGNAE", "soluble on expression in E. coli": "not soluble"}, {"sequence": "MIHVGTCGFCEAREKYFKDFDAVEVQQTFYKVLQEKTLERWRKKAPEEFTFSIKAFQGVTHPSNSPTWRRSNVKPSKNVGLLRPTNEVLHYWRITLKEAKVLGARFILIQLPRSFKEGEESFENAEKFFNAIDRGDFEIGVELRGWSEKGVKRFVREFDVIDVTDPLLRIPLHKGSVNYYRLHGKYEGGKIIYNHSYSDEELKKIRERVLGWNVEESFVFFNNTSMCRDAKRFKLILDLH", "soluble on expression in E. coli": "soluble"}, {"sequence": "MGSDKIHHHHHHMGNYQHPGIYVQEIAIAPNIEPVAACLPLFIGHTEKSQDANGHPLPLGKRYSVSSLAEYEEHFGKGAPETLRVLLDGKGNIVNAHSYSPFYLYAAVHQYFANGGGQCEILSVGPYSRAPDASALKAAIRALPLNAAFTLVAIPDAVSLAELPQLQRKLLQYCAQQDYCLAILDVPYCNDQTREMTVNTFRHDIGQRGLQHGAAFMPWLETAAAGISGYVDLEIKYTPGVATAWNDFHKATKLQSHLLHKQLEASPAIRFNRMLPPSGSIMALFEANARKRNIWTTPNHTPIKEIISLSATIDNIIQESLNIHPTGKSINAIRRFDNALLMWGGHTLASNDSEWRYIAHLLTRGFVQASLRRFLDQQTFEKNDEATWSLVGHQCQDFLHTLWREGALVGDKPEQAFYVRIGLNQTMSTQDIAAGRIIVHVGIALLRPAEFIILKLHKVISAPDLKPAITRPGKPVNRVKIRAKTSPINVVIRQRQQPSPPSKPLPSEPVS", "soluble on expression in E. coli": "not soluble"}]}]}
